Assay: yeast display, Sf9 membrane polyspecificity reagent, FACS + sequencing; frameworks hold sequencing errors
Outline: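 Polyreactivity labels are assigned by the sorting gate from which each nanobody was recovered. The gates were low and high (top ~1%), set on anti-HA fluorescence for expression and streptavidin fluorescence for reagent binding. Before sorting, galactose-induced (36–48 hours) yeast display cells were stained for 1 hour at 4 °C with 10% biotinylated, detergent-solubilized Sf9 membrane reagent.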

Sequence | polyreactivity (PSR sort gate)
AVQLVESGGGLVQAGGSLRLSCAASGSTCTGMTWDGRHRRLGRKELVAGIRSAGSTNYADSVKGRFTISGDNAKITVYLQLNSLKPEDTAVYYCAKDYRWVWRKYGYWGQGTQVTVSS | low polyreactivity
EDQLEESGGGLVQAGGSLRLSCAASGLIFPSYVMGWYRQAPGKERELVASISRVGSTYADSVKGRFTISRDNAKNTVYLQMNSLKPEDTAVYYCAKQVVWRGFRGLDYWGQGTQVTLSS | high polyreactivity
EEELVESGGGLVQAGGRLRLSCAASGRIFDYNAMGWYRQAPAKQRELVAVIDYSGDSTYYADSVKGRFTISRDNAKNTVYLQLISLKPEDTAVYYCNADSRYSYSDYGYWGQGTQVNVSS | low polyreactivity
EEELVESGGGLVQPGGSLRLSCAASGSIFTHYSMGWYRQAPGKERELVAAISWSGGSTYYADSVKGRFTISRDNAKYTVSLQMNSLKAEDTAVYYCAAETYWGDDYWGQGTQVTVSS | high polyreactivity
EVQLGESGGGLVQAGGSLRLSCAASGSTFNTNAMGWYRQAPGKERELVAAISWSSTRTYYADSVKGRFTISRDNAKNTVYLQINSLKPEDTAVYYCAGRSVGGRYFKGNYWGHGTQVTVSS | high polyreactivity
EVQLVESGGGLVQAGGSLRLICAASGSIFRDNAMGWYRQAPGKERELVARITWSGTRTYYADSVKGRFTISRDKAKNTVYLQMNSLKPEDTAVYYCNKDRRTIPPSGNDYWGQGTQVTVSS | low polyreactivity
EVQLVESGGGLVQAGGSLRLSCAASGRTFLVNAMGWSRPAPGKERELVAAISRSSGRTYYADSVKGRFTISRDNAKNTVYLQMNSLKPEDTAVYYCAARGYWGQGTQVTVSS | high polyreactivity
EVQLVESGGGLVQAGGSLRLSCAASGSIFYTNTMGWYRQAPGKERELVATGSTYYADSVKGRFTISRDNAKNTVYLQMNSLKPEDTAVYYCAKRGDFLTTRYESGSAASDYWGQGTQVTVSS | low polyreactivity
EVQLVESGGGLVQAGGSLRLSCAASGTSFLLYAMGWYRQARGKERELLAAISSSGARTYYADSVKGRCTISRDNAKYTVYLQMNSLKPEDTAVYYCAASRRAYRSSYVSPFGYWGQGTQVTGSS | high polyreactivity
EVQLVESGGGLVQAGGSLRLSCAAYGFTFVVYDMGWYRQAPGKERELVAAISRRGGNTYYADSVKGRFTISRDNAKNTVYLQMNSLKPEDTAVYYCNAVRTRKAYDYWGQGTQVTVSS | low polyreactivity
EVQLVESGGGLVQAGGSLRLSCADSGGIFIFYALGWYRQAPWKEREFVASIRSNVGSTYYADSVKGRFTISRDNAKNTVYLQMNSLNPEDTAVYYCNSRYYWYRGYDYWGQGTQVTVSS | high polyreactivity
EVQLVESGGGLVQSGGSLRLSSAASGSIFRYYAMGWYRQAPGKERELVAAITGSTGRTYYADSVKGRFTISRDNAKNTVYLQMNSLKPEDTAVYYCAARSRYYEYDYWGQGTQVTVSS | low polyreactivity
HAQLQESGGGLVQAGGSLRRSCAASGSIFRFSGMGWYRRAPGKERELVASIGFGSITYYADRVKGRFTISRDNANKTVYLQMNSLKPEDTAVYYCAVQVQDESWLDYWGQGTQVTVSC | low polyreactivity
HDQLVESGGGLVQAGGSLRLSCAASGNTFIYYAMGWYRQAPGKEREMVAAISRSGGSTYYADSVKGRFTISRDNAKNTVYLQMNSLKPEDTAVYYCAAEATKWIGVVTMDYWGQGTQVTVSS | high polyreactivity
HFQLVESGGGLVQAGGSLRLSCAASGFTFNDMGWYRLATGKERELVARIDSDDTTNYADSVKGRFTISRDNAKKTVYVLMNSLKPEDTAVYYCNKDYAWLSYQDYDYWGQGTQVTVSS | low polyreactivity
HFQLVESGGGLVQAGGSLRLSCAASGSSYSNYAMGWYRQAPGKEREMVAAISSSGSTYYADSVKGRFTISRDNAKNTVYLQLHRLKPEDTAVYYCAAGKDRRTSRYRYDSWGQGTQVTVSS | high polyreactivity
HGQLVESGGGLVQAGGSLRLSCAASGRTFRYYAMGWYREAPGKERELVAAITGSGGSTYYADSVKGRFTISRDNAQNTVYLQMNSLKPEDTAVYYCATRWALRWRGGYWGQGTQVTVSS | high polyreactivity
HLQLVESGGGLVQAGGSLRLSCAASGSILNFYAMGWYRQAPGTERELVAAISSSGGSTYYADSVKGRFTISRDNAKNTVYLQMNILQPEDTAVYYCNADYSPSSDSEYGYWGQGTQVTVSS | low polyreactivity
HLQLVESGGVLVQAGGSLRLSCASSGSTFRSNVMGWYRQAPGKAREFVAAITSSSATTYYADSVKGRFTISRDNAKNTVYLLINSLKPEDTAVYYCAAGGRKAGPAGGQYYYWGQGTQVTVSS | low polyreactivity
HLQLVETVGGLDQAGGSLRLSFAASGITSYGYAKGGYSEAAANESELVASISWTGGNTYADSLKGRFTISRDNAKNSVYLQMNSLKPEDSAVYYSNAGRSWDFLYCYEYWGQGTQVTVSS | low polyreactivity
HSAVGLVQAGVRHPLSCAASGRMFKYNAMRWYRQAPGKERELVAAISYSGGSTYYADSVKGRFTISRDNEMYTVYLQMNSLKPEDTAVYYCAKATSTREPKYGYWGQGTHVTVSS | high polyreactivity
HVELVQSCGGLVQAGGSLRLSSAASGRIFSPYVMGWFRQAPGKVRQLVAASRNRGGSTYYAAAVKWRFTISRDNATNTVYIQMNSLKPEDTAVYYCNAPDVSRPLRGRYDYWGQGTQVTVSS | high polyreactivity

Sequence | polyreactivity (PSR sort gate)
HVQHVDSGAGLVQAGGSLRLSCAASGRTFVGYAMGWYRQAPGKEREFVADITYDSGSTYYADSVKGRFTISRDNAKNTVYLQMNSLKPEDTAVYYCNAKYYYWWYDVDYWGQGTQVTVSS | high polyreactivity
HVQHVDSGGGLVQAGGSLRLSFAAYGRIFVNNAMGWYRQATGKERELVAAISQNGGRTYYADSVKGRFTISRDNAKNTVYLQMNSLKPEDTAVYYCAAGQARAGLIGGYWGQGTQVTVSS | high polyreactivity
HVQIVESGGGLVQAGGSLRLSCADSGSTFLGYDMGWFRQAPGKVRELVATISKSGGSTHYADSVKGRFTISRDNAKNTVSLQMNSLKPEETAVYYCAADYYPRYYKNTGEYDYWGQGTQVTVSS | low polyreactivity
HVQLQERGGGLVQAGGSLRPSCAARGTISDGVPMGWYRQAPGEERELVATTVLGATTNYADSVKGRFTISRGNAKNTVYLQMNSLNPEETAVYYCAAPLRYDKGFSYWGQGTQVTVSS | low polyreactivity
HVQLQESGGGLVQAGGDLRLSCAASGNIFRDYIMGWYRQAPGKEREFVAGIDRGANTNYADSVKGRFTISRDNAKNTVYLQMNSLIPEDTAVYYCAVHTAIVPDFIYWGQGTQVTVSS | low polyreactivity
HVQLQESGGGLVQAGGSLRLSCAASGNISYSRNMGWYRQAPGKERELVAAIDRGAITYYADSVQGRFTISRDNAKNTVYLQIYSLKPEDTAVYYCAAEYHDRWDHLYWGQGTQVTVSS | high polyreactivity
HVQLQESGGGLVQAGGSLRLSCAASGSNFRWSPMGWYRLAPGKEREFVAGINRGGITNYADSVKGRFTSSRDNAKNTVYLQMNSLKPEDTALYYCAAIAYPDLPTYFDYDSDYFYRGQGTQVTVSS | low polyreactivity
HVQLQESGGVLVQAGGSLRLSCAASGSIFQATYMGWYRQAPGKEREFVASITYGSITNYADSVKGRFTIGRDNAKDTLYLQMNSLKPEDTAVYYCADDRHYIPAFHYWGQGTQVTVSS | low polyreactivity
HVQLQETGGGLVQAGGCLSCTASGTIFGQGDMGWYRPAPGKERELVATINDGASTYYADSVKGRFTISRDKAKNTVYLQKNSLKPDDTAVNYCAVFTDITTYFGYWGQGTQVTVSS | low polyreactivity
HVQLVDSGGGLVQAGGSLRLSCAASGFIFRRYAMGWYRQAPGKERELVAAIRSDGSTNYADSVKGRFTISRDNAKNTVYLQLNSLKPEDTAVYYCAATYYSYTWFSQYYYWGQGTQVTVSS | high polyreactivity
HVQLVESAGGLVQAGGSLRLSCAASGRIFAVYAMGWYRQAPGKERELVAAISYIGGSTYYADSVKGRFTISRDNAKNTVYLQMNSLKPEDTAVYYCNKDIPKRQYVVYRTAYEYDYWGQGTQVSVSS | low polyreactivity
HVQLVESAGGLVQEGGSLRVSCAASGFTFSFYAMGGYRQAPGKERELVAAISWNSGSTYYADSVKGRFTISRDNAKNTVYLQMNSLKPADTAVYYCAADVQRYRGITYYYWGQGTPVTVSS | high polyreactivity
HVQLVESGGGFVQAGGSLRLSCAASGITFVKYTMGWYRQAPGKERELVAASSRSDGRTYYADSVKGRFTISRDNAKNSVYLQMNSLKPEDTAVYYCNAVYGVIGKGYNYWGQGTQVTVSS | high polyreactivity
HVQLVESGGGIVQAGGSLRLSCAASGLIFSYYAMGWYRQAPGKERELVAAINSGGSTYYADSVKGRFTISRDNAKNTVYLQMNSLKPEDSAVYYCAAHLWYHGHLFDYWGQGTQVTVSS | high polyreactivity
HVQLVESGGGIVQAGGSLRLSCAASGLIVINYAMGRYRQARGKERELVATIRYCGGSTNYADSVKGRFTISRDNAKNTVYLQMNSLKPEDNAVYYCNAGYYPTGYDYWGQGTQVTVSS | low polyreactivity
HVQLVESGGGLVHAGGSLRLSCAASGAIFWVNAMGWYREAPGKERELVADISRSGANTYYADSVKGRFTISRDNAKNTVYLQMTSLNPEDTAVYYCAKGVFYPWWYVQPEHDYWGQGTQVTVSS | high polyreactivity
HVQLVESGGGLVQAGGSLPLSCAASGRTFDHYAMGWYRQAPGKEREFVAAITSGGSTYYADSVKGRFRISRDNAKNTVYLQMNSLKPVDTAVYYCNNDSSFWGYYIAQVNERDYWGQGTQVTVSS | low polyreactivity
HVQLVESGGGLVQAGGSLRLICAASGFIFRFNAMGWYRQAPGKERELVAAISGSGGITYYADSVKGRFTISRDNAKNTVYLQMNSLKPEDTAVYYCAARPLFGWRGYNYWGQGTQVTVSS | high polyreactivity
HVQLVESGGGLVQAGGSLRLRCAASGITFAEYTMGWYRQAPGKERELVAAISRRGGSTYYADSVKGRLTISRDNAKNTVYLQMNSLKPEDTAVYYCNALFRYSRDYWGQGTQVTVSS | high polyreactivity
HVQLVESGGGLVQAGGSLRLSCAACGSTFRRYTMGWYIQAPGKDRELVAAITWSGGSTYYADSVKGRFTISRDNAKNTVYLQMNSLKPEDTAVYYCAADRPYHTREYYYWGQGSQVTVSS | low polyreactivity
HVQLVESGGGLVQAGGSLRLSCAASGFIIADNAMGWDRQAPGKERELVAAISSSGGSTYYADSVKARFTISRDNAKNTVYLQMNSLKPVDTAVYYCAARTYHPRYVRPTFYYWGQGTQVTVSS | low polyreactivity

Source: the nanobody polyreactivity screen of Harvey et al. (2022)
